Patent US20230167455

B1: human CDKL5, isoform 4 (protein)
chain: MKIPNIGNVMNKFEILGVVGEGAYGVVLKCRHKETHEIVAIKKFKDSEENEEVKETTLRELKMLRTLKQENIVELKEAFRRRGKLYLVFEYVEKNMLELLEEMPNGVPPEKVKSYIYQLIKAIHWCHKNDIVHRDIKPENLLISHNDVLKLCDFGFARNLSEGNNANYTEYVATRWYRSPELLLGAPYGKSVDMWSVGCILGELSDGQPLFPGESEIDQLFTIQKVLGPLPSEQMKLFYSNPRFHGLRFPAVNHPQSLERRYLGILNSVLLDLMKNLLKLDPADRYLTEQCLNHPTFQTQRLLDRSPSRNQAGKSTALQSHHRSNSKDIQNLSVGLPRADEGLPANESFLNGNLAGASLSPLHTKTYQASSQPGSTSKDLTNNNIPHLLSPKEAKSKTEFDFNIDPKPSEGPGTKYLKSNSRSQQNRHSFMESSQSKAGTLQPNEKQSRHSYIDTIPQSSRSPSYRTKAKSHGALSDSKSVSNLSEARAQIAEPSTSRYFPSSCLDLNSPTSPTPTRHSDTRTLLSPSGRNNRNEGTLDSRRTTTRHSKTMEELKLPEHMDSSHSHSLSAPHESFSYGLGYTSPFSSQQRPHRHSMYVTRDKVRAKGLDGSLSIGQGMAARANSLQLLSPQPGEQLPPEMTVARSSVKETSREGTSSFHTRQKSEGGVYHDPHSDDGTAPKENRHLYNDPVPRRVGSFYRVPSPRPDNSFHENNVSTRVSSLPSESSSGTNHSKRQPAFDPWKSPENISHSEQLKEKEKQGFFRSMKKKKKKSQTTDSTNGENPSIKKSLFPLFNSKNHLKHSSSLKKLPVVTPPMVPNSDSPDLLTLQKSIHSASTPSSRPKEWRPEKISDLQTQSQPLKSLRKLLHLSSASNHPASSDPRFQPLTAQQTKNSFSEIRIHPLSQASGGSSNIRQEPAPKGRPALQLPGQMDPGWHVSSVTRSATEGPSYSEQLGAKSGPNGHPYNRTNRSRMPNLNDLKETAL
B2: human CDKL5, isoform 2 (protein)
chain: MKIPNIGNVMNKFEILGVVGEGAYGVVLKCRHKETHEIVAIKKFKDSEENEEVKETTLRELKMLRTLKQENIVELKEAFRRRGKLYLVFEYVEKNMLELLEEMPNGVPPEKVKSYIYQLIKAIHWCHKNDIVHRDIKPENLLISHNDVLKLCDFGFARNLSEGNNANYTEYVATRWYRSPELLLGAPYGKSVDMWSVGCILGELSDGQPLFPGESEIDQLFTIQKVLGPLPSEQMKLFYSNPRFHGLRFPAVNHPQSLERRYLGILNSVLLDLMKNLLKLDPADRYLTEQCLNHPTFQTQRLLDRSPSRSAKRKPYHVESSTLSNRNQAGKSTALQSHHRSNSKDIQNLSVGLPRADEGLPANESFLNGNLAGASLSPLHTKTYQASSQPGSTSKDLTNNNIPHLLSPKEAKSKTEFDFNIDPKPSEGPGTKYLKSNSRSQQNRHSFMESSQSKAGTLQPNEKQSRHSYIDTIPQSSRSPSYRTKAKSHGALSDSKSVSNLSEARAQIAEPSTSRYFPSSCLDLNSPTSPTPTRHSDTRTLLSPSGRNNRNEGTLDSRRTTTRHSKTMEELKLPEHMDSSHSHSLSAPHESFSYGLGYTSPFSSQQRPHRHSMYVTRDKVRAKGLDGSLSIGQGMAARANSLQLLSPQPGEQLPPEMTVARSSVKETSREGTSSFHTRQKSEGGVYHDPHSDDGTAPKENRHLYNDPVPRRVGSFYRVPSPRPDNSFHENNVSTRVSSLPSESSSGTNHSKRQPAFDPWKSPENISHSEQLKEKEKQGFFRSMKKKKKKSQTTDSTNGENPSIKKSLFPLFNSKNHLKHSSSLKKLPVVTPPMVPNSDSPDLLTLQKSIHSASTPSSRPKEWRPEKISDLQTQSQPLKSLRKLLHLSSASNHPASSDPRFQPLTAQQTKNSFSEIRIHPLSQASGGSSNIRQEPAPKGRPALQLPGQMDPGWHVSSVTRSATEGPSYSEQLGAKSGPNGHPYNRTNRSRMPNLNDLKETAL
B3: human CDKL5, isoform 3 (protein)
chain: MKIPNIGNVMNKFEILGVVGEGAYGVVLKCRHKETHEIVAIKKFKDSEENEEVKETTLRELKMLRTLKQENIVELKEAFRRRGKLYLVFEYVEKNMLELLEEMPNGVPPEKVKSYIYQLIKAIHWCHKNDIVHRDIKPENLLISHNDVLKLCDFGFARNLSEGNNANYTEYVATRWYRSPELLLGAPYGKSVDMWSVGCILGELSDGQPLFPGESEIDQLFTIQKVLGPLPSEQMKLFYSNPRFHGLRFPAVNHPQSLERRYLGILNSVLLDLMKNLLKLDPADRYLTEQCLNHPTFQTQRLLDRSPSRNQAGKSTALQSHHRSNSKDIQNLSVGLPRADEGLPANESFLNGNLAGASLSPLHTKTYQASSQPGSTSKDLTNNNIPHLLSPKEAKSKTEFDFNIDPKPSEGPGTKYLKSNSRSQQNRHSFMESSQSKAGTLQPNEKQSRHSYIDTIPQSSRSPSYRTKAKSHGALSDSKSVSNLSEARAQIAEPSTSRYFPSSCLDLNSPTSPTPTRHSDTRTLLSPSGRNNRNEGTLDSRRTTTRHSKTMEELKLPEHMDSSHSHSLSAPHESFSYGLGYTSPFSSQQRPHRHSMYVTRDKVRAKGLDGSLSIGQGMAARANSLQLLSPQPGEQLPPEMTVARSSVKETSREGTSSFHTRQKSEGGVYHDPHSDDGTAPKENRHLYNDPVPRRVGSFYRVPSPRPDNSFHENNVSTRVSSLPSESSSGTNHSKRQPAFDPWKSPENISHSEQLKEKEKQGFFRSMKKKKKKSQTVPNSDSPDLLTLQKSIHSASTPSSRPKEWRPEKISDLQTQSQPLKSLRKLLHLSSASNHPASSDPRFQPLTAQQTKNSFSEIRIHPLSQASGGSSNIRQEPAPKGRPALQLPGQMDPGWHVSSVTRSATEGPSYSEQLGAKSGPNGHPYNRTNRSRMPNLNDLKETAL
B4: human CDKL5, isoform 1 (protein)
chain: MKIPNIGNVMNKFEILGVVGEGAYGVVLKCRHKETHEIVAIKKFKDSEENEEVKETTLRELKMLRTLKQENIVELKEAFRRRGKLYLVFEYVEKNMLELLEEMPNGVPPEKVKSYIYQLIKAIHWCHKNDIVHRDIKPENLLISHNDVLKLCDFGFARNLSEGNNANYTEYVATRWYRSPELLLGAPYGKSVDMWSVGCILGELSDGQPLFPGESEIDQLFTIQKVLGPLPSEQMKLFYSNPRFHGLRFPAVNHPQSLERRYLGILNSVLLDLMKNLLKLDPADRYLTEQCLNHPTFQTQRLLDRSPSRSAKRKPYHVESSTLSNRNQAGKSTALQSHHRSNSKDIQNLSVGLPRADEGLPANESFLNGNLAGASLSPLHTKTYQASSQPGSTSKDLTNNNIPHLLSPKEAKSKTEFDFNIDPKPSEGPGTKYLKSNSRSQQNRHSFMESSQSKAGTLQPNEKQSRHSYIDTIPQSSRSPSYRTKAKSHGALSDSKSVSNLSEARAQIAEPSTSRYFPSSCLDLNSPTSPTPTRHSDTRTLLSPSGRNNRNEGTLDSRRTTTRHSKTMEELKLPEHMDSSHSHSLSAPHESFSYGLGYTSPFSSQQRPHRHSMYVTRDKVRAKGLDGSLSIGQGMAARANSLQLLSPQPGEQLPPEMTVARSSVKETSREGTSSFHTRQKSEGGVYHDPHSDDGTAPKENRHLYNDPVPRRVGSFYRVPSPRPDNSFHENNVSTRVSSLPSESSSGTNHSKRQPAFDPWKSPENISHSEQLKEKEKQGFFRSMKKKKKKSQTVPNSDSPDLLTLQKSIHSASTPSSRPKEWRPEKISDLQTQSQPLKSLRKLLHLSSASNHPASSDPRFQPLTAQQTKNSFSEIRIHPLSQASGGSSNIRQEPAPKGRPALQLPGQMDPGWHVSSVTRSATEGPSYSEQLGAKSGPNGHPYNRTNRSRMPNLNDLKETAL

Molecular target: T1, EB2 protein (endogenous target of CDKL5 in mouse brain), Q8R001
T1 chain: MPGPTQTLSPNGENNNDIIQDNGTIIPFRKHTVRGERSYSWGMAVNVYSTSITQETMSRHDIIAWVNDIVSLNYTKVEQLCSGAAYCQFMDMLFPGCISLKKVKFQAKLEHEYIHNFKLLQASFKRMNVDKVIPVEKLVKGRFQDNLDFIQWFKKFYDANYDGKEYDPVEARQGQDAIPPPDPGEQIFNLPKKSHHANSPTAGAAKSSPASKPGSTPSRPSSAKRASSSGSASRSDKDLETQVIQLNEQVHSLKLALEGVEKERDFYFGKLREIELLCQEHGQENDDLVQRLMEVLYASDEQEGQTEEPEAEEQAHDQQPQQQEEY

Protein	EB2 phosphorylation levels (Western blot, Cdkl5-ko mouse brain)	ability to phosphorylate EB2 (mouse brain)	EB2 phosphorylation (Cdkl5(D471fs) mouse brain, 3 months after AAV)	EB2 phosphorylation (Cdkl5(R59X) mouse brain, 3 months after AAV)	kinase activity, blotting for phosphorylated EB2 (Cdkl5-ko mouse brain, 3 months after AAV)	phosphorylation of EB2 (Western blot of mouse brain, pS222EB2)
B1	by isoforms three or 4 slightly lower compared to isoform 1	All tested plasmids expressed well in mouse brain, showing minor differences in ability to phosphorylate EB2 (measurement of CDKL5 kinase activity)	–	–	–	–
B2	EB2 phosphorylation levels generated by isoform 2 were slightly higher	All tested plasmids expressed well in mouse brain, showing minor differences in ability to phosphorylate EB2 (measurement of CDKL5 kinase activity)	–	–	–	–
B3	by isoforms three or 4 slightly lower compared to isoform 1	All tested plasmids expressed well in mouse brain, showing minor differences in ability to phosphorylate EB2 (measurement of CDKL5 kinase activity)	–	–	–	–
B4	–	All tested plasmids expressed well in mouse brain, showing minor differences in ability to phosphorylate EB2 (measurement of CDKL5 kinase activity)	showed robust hCDKL5 protein expression and EB2 phosphorylation 3 months later	showed robust hCDKL5 protein expression and EB2 phosphorylation 3 months later	human CDKL5 showed robust kinase activity when blotting for phosphorylated EB2 protein	CDKL5 was fully active, as determined by its ability to phosphorylate its endogenous target EB2 protein
